Assay results from patent US20250333486A1, “Anti-HSP90 alpha antibody and uses thereof” (NATIONAL HEALTH RESEARCH INSTITUTES, priority 2021, published 2025).

Tests used:
[1] = target: T1, rHSP90α (Homo sapiens, UniProt P07900); assay: ELISA for HSP90α-binding activities; settings: culture supernatants of six hybridoma clones
T1 construct: recombinant 732-amino acid (a.a.) full-length human HSP90α (rHSP90α; PeproTech Co., Cranbury, NJ, USA); purchased PeproTech Co., Cranbury, NJ, USA
Protocol: For assaying the HSP90α-binding activities of the prepared antibodies, 96-well plates were coated with 12.5 ng/ml of rHSP90α in the capture buffer (BioLegend, San Diego, CA, USA) by overnight incubation at 4° C. The coated plates were washed twice with PBST and then blocked with PBST plus 3% bovine serum albumin (BSA). The prepared antibodies were applied and incubated 2 h at room temperature. After three washes with PBST, horseradish peroxidase-conjugated secondary antibody was added and incubated at 37° C. for another 1 h. After three washes, 0.3 mg/ml of 3,3′,5,5′-tetramethylbenzidine in 0.015% H2O2 was added into each well and incubated in the dark at room temperature for 10 min. The reactions were stopped by the addition of 0.5 M H2SO4, and OD450 values were measured by an Infinite M200 microplate reader (TECAN, Männedorf, Switzerland). Additionally, the immunoglobulin (IgG) isotype characterization of anti-HSP90α antibodies was performed by using the Mouse Ig Isotyping ELISA Ready-Set-Go!™ Kit (eBioscience™, Thermo Fisher Scientific, Waltham, MA, USA). The ELISA protocol was also used to assay the secreted HSP90α levels of mouse serum samples as described previously. See Chen J S, Hsu Y M, Chen C C, Chen L L, Lee C C, Huang T S. Secreted heat shock protein 90α induces colorectal cancer cell invasion through CD91/LRP-1 and NF-κB-mediated integrin αV expression. […]

[2] = target: T2, associations of CD91 with HSP90α and IKKα (Homo sapiens, UniProt P07900); assay: Proximity ligation assay (PLA) in PANC-1 cells; type: cell-based; settings: 15 μg/ml rHSP90α, 10 μg/ml antibody
T2 construct: recombinant 732-amino acid (a.a.) full-length human HSP90α (rHSP90α; PeproTech Co., Cranbury, NJ, USA); purchased PeproTech Co., Cranbury, NJ, USA; host or cells: PANC-1 cells (CD91 and IKKα endogenous)
Protocol: PANC-1 cells seeded onto glass coverslips at a density of 2×10^5 cells per 22×22-mm coverslip were incubated 16 h with 0.5% serum-containing medium at 37° C. plus a 5% CO2 humidified atmosphere. The cells were then added with PBS or 15 μg/ml of rHSP90α in the absence or presence of 10 μg/ml of control IgG or the tested anti-HSP90α antibody for another 24-h incubation. The treated cells were then fixed with 3% paraformaldehyde and blocked with the blocking solution provided in the Duolink in situ PLA kit (Olink Bioscience, Uppsala, Sweden). Furthermore, the cell samples were incubated overnight at 4° C. with anti-CD91 antibody (1:80, cat. #550495, BD Biosciences, San Jose, CA, USA) mixed with anti-HSP90α antibody (1:80, cat. #AHP-1339, AbD Serotec, Raleigh, NC, USA) or anti-IKKα antibody (1:80, cat. #3285, Epitomics Co., Burlingame, CA, USA). After washed trice with Tris-buffered saline plus 0.05% Tween 20, the cell samples were incubated with PLA probes for the subsequent ligation and amplification procedure according to the manufacturer's instructions for the Duolink in situ PLA kit. Finally, nuclei were counterstained with 4′,6′-diamidino-2-phenylindole (DAPI; Sigma-Aldrich). Images were photographed and analyzed using Leica TCS SP5 II confocal microscope and LAS AF Lite 4.0 software (Leica, Wetzlar, Germany).

[3] = system: SW620 and PANC-1 cells; assay: Transwell invasion assay, rHSP90α-induced cancer cell invasion; type: cell-based, human; settings: SW620 and PANC-1, 15 μg/ml rHSP90α plus 10 μg/ml antibody
Protocol: (§1) In a 37° C. and 5% CO2 humidified incubator, cancer cells were subjected to serum starvation in 0.5% FBS-containing medium for 16 h, and then added with PBS or 15 μg/ml of rHSP90α in the absence or presence of 10 μg/ml of control IgG or the tested anti-HSP90α antibody. After another 24 h, the treated cells were harvested as aliquots (1×10^5 cells per aliquot) in 0.5% FBS-containing culture medium, and then each aliquot was seeded into a top chamber of Transwell inserts pre-coated with 5-fold diluted Matrigel (BD Biosciences). Cells were allowed 16 h to invade through the Matrigel toward the bottom chambers containing culture medium plus 10% FBS. The filters of the Transwell inserts were then fixed and stained with Giemsa. Invasive cells on the lower side of filters were photographed using the Axiovert S100/AxioCam HR microscope system (Carl Zeiss, Oberkochen, Germany) and further quantified by the Image-Pro Plus software (Media Cybernetics, Inc., Silver Spring, MD, USA).

[4] = system: SW620, PANC-1, and Panc 02 cells; assay: Cell spheroid-forming assay, rHSP90α-induced gain-of-stemness; type: cell-based, human and mouse; settings: SW620, PANC-1, Panc 02; 15 μg/ml rHSP90α plus 10 μg/ml antibody
Protocol: One thousand cancer cells were seeded onto each well of 24-well plates pre-coated with a 4-mm thick layer of 0.5% agarose. After incubation 24 h with serum-free medium at 37° C. plus a 5% CO2 humidified atmosphere, cells were added with PBS or 15 μg/ml of rHSP90α in the absence or presence of 10 μg/ml of control IgG or the tested anti-HSP90α antibody. The incubation was kept for 10-14 days with supplements of some fresh serum-free medium every 3 days. Finally, the cell spheroids characterized by tight, non-adherent, and >100 μm in diameter were photographed and counted under an Olympus IX 71 inverted microscope (Center Valley, PA, USA). The spheroid formation % was calculated by the formula: (number of cell spheroids/1000)×100%.

[5] = target: T3, HSP90α (Homo sapiens, UniProt P07900); assay: Epitope determination by ELISA (domain, peptide and alanine scanning); type: binding; settings: full-length and truncated HSP90α
T3 construct: The full-length HSP90α (a.a. 1-732) and its 3 truncated fragments; 8×His; made in house; host or cells: Escherichia coli ClearColi, pET-23a
Excerpt: The full-length HSP90α (a.a. 1-732) and its 3 truncated fragments including the N-terminal plus Linker domains (a.a. 1-272), N terminus through Middle domain (a.a. 1-629), and C-terminal domain (a.a. 630-732) were cloned, expressed, and purified. Briefly, each cDNA sequence with a 8×His-tag was amplified by PCR from the human ORF Clone (NM_005348) with the primers containing Xho I and BamH I sites. The PCR products were purified, digested with restriction enzymes, and then inserted into pET-23a plasmid (Sigma-Aldrich). The recombinant plasmids were then transformed into Escherichia coli ClearColi® competent cells (Lucigen Co., Middleton, WI, USA), and expressions of the recombinant constructs were stimulated by the addition of isopropyl-D-thiogalacto-pyranoside. The expressed histidine-tagged full-length and truncated HSP90α were further purified by using the Ni—NTA column (Qiagen, Germantown, MD, USA) according to the manufacturer's instructions. The purified proteins were finally dialyzed against the storage buffer consisting of 25 mM Tris-HCl (pH, 7.0), 50 mM NaCl, 0.1% Triton X-100, 50% glycerol, 1 mM EDTA, and 1 mM DTT, and protein concentrations were determined by the Bradford protein assay (Bio-Rad Laboratories, Hercules, USA).
At first, the domain scanning strategy was used to roughly delineate the HSP90α region responsible for the binding with our prepared antibodies. […]

[6] = system: PANC-1 cells; assay: Transwell invasion assay, rHSP90α-induced PANC-1 invasion; type: cell-based, human; settings: 15 μg/ml rHSP90α plus 10 μg/ml antibody
Protocol: as §1, with “with PBS or 15 μg/ml of rHSP90α in the absence or presence of 10 μg/ml of control IgG or the tested anti-HSP90α antibody.” left out

HSP90α-binding levels (ELISA) [1]	blocking of the binding of eHSP90α with its cell-surface receptor CD91 [2]	blocking of the downstream association of CD91 with IKKα [2]	Molecule	rHSP90α-induced cancer cell invasion [3]	rHSP90α-induced spheroid-forming ability (gain-of-stemness) [4]	HSP90α region bound (domain scanning) [5]	suppression of rHSP90α-induced invasiveness of PANC-1 cells [6]
top two HSP90α-binding levels	efficiently blocked	efficiently blocked	Clone-2: mouse anti-HSP90α monoclonal antibody, IgG2b κ; VH SEQ ID NO: 2, VL SEQ ID NO: 7 (antibody, V domains shown, Heavy chain variable region; Light chain variable region) VH: EVQVVESGGGLVQPKGSLKLSCAASGFTFKTYAMNWVRQAPGKGLEWVARIRSKSRNYATYYADSVKDRFTISRDDSQFMFYLQMNNLKTEDTAMYYCVVGGSGFDYWGQGTTLTVSS VL: DVLMTQTPLSLPVSLGDQASISCRSSQSIVHSNGNTYLEWYLQKPGQSPKLLIYKVGVPDRFSGSGSGTDFTLSISRVEAGDLGVYYCFQGSHVPWTFGGGTKLEIK	drastically abolished	significantly inhibited	bound to the a.a. 1-272 region as well as the full-length protein	–
–	–	–	Clone-2-chimera: recombinant IgG1 antibody: Clone-2 VH and VL with human IgG constant domains (antibody, V domains shown) VH: EVQVVESGGGLVQPKGSLKLSCAASGFTFKTYAMNWVRQAPGKGLEWVARIRSKSRNYATYYADSVKDRFTISRDDSQFMFYLQMNNLKTEDTAMYYCVVGGSGFDYWGQGTTLTVSS VL: DVLMTQTPLSLPVSLGDQASISCRSSQSIVHSNGNTYLEWYLQKPGQSPKLLIYKVSNRFSGVPDRFSGSGSGTDFTLSISRVEAGDLGVYYCFQGSHVPWTFGGGTKLEIK	–	–	–	superior to Clone-2-hB, Clone-2-hC, and their parental Clone-2
